Assay results taken from the DeepSol protein solubility set.

Assay: soluble on expression in E. coli; label from the status in PepcDB or PDB records

| Sequence | soluble on expression in E. coli |
| --- | --- |
| MQATLIKPTIFTHQPILEKLFKSQSMTQEESHQLFAAIVRGELEDSQLAAALISMKMRGERPEEIAGAASALLADAQPFPRPDYDFADIVGTGGDGTNSINISTASAFVAASCGAKVAKHGNRSVCQPLAGSCDLLQAFGIRLDMSAEDSRQALDDLNVCFLFAPQYHTGFRHAMPVRQQLKTRTIFNVLGPLINPARPPKALIGVYSPELVLPIAQALKVLGYKNAAVVHGGGMDEVAIHTPTQVAELNNGEIESYQLSPQDFGLQSYSLNALQGGTPEENRDILARLLQGKGDAAHARQVAANVALLLKLFGQDNLRHNAQLALETIRSGTAFERVTALAARG | soluble |
| MQDFLWKSCAIMGTMKLRIEQDDQYKELEIHITYGQKDKLIERILGFLETVDRQLSCYQEGRKYLVNFSDIYYIESVDKKTFVYLADEIYQTDLRLYQLLHDLQHDGFVQISKSCLLNINVLENIRPLFNSRMEATLLNGERVIVNRRYLPDVKEALKGIQ | not soluble |
| MQDNSRYTHFLTQHYDAKPQGRDDRYCESIMRRRGLTSDRCKPINTFIHGNKRSIKAICENKNGNPHRENLRISKSSFQVTTCKLHGGSPWPPCQYRATAGFRNVVVACENGLPVHLDQSIFRRP | soluble |
| MQDPRHPQGLPLSPGLPKRQRQDRTIYNWKQQEVLENHFKEEQYPDYDTRQELAEMLNLREYQVQVWFKNRRAKRSREQWFQKQLQQLQKHPQQQHPQQQHPQQQLQQQQPQQQPQQQQPQQQQLHQQPQ | soluble |
| MQDRNFDDIAEKFSRNIYGTTKGQLRQAILWQDLDRVLAEMGPQKLRVLDAGGGEGQTAIKMAERGHQVILCDLSAQMIDRAKQAAEAKGVSDNMQFIHCAAQDVASHLETPVDLILFHAVLEWVADPRSVLQTLWSVLRPGGVLSLMFYNAHGLLMHNMVAGNFDYVQAGMPKKKKRTLSPDYPRDPAQVYLWLEEAGWQIMGKTGVRVFHDYLREKYQQRDCYEALLELETRYCRQEPYITLGRYIHVTARKPQSKDKV | not soluble |
| MQDRSCYKLTQEGERLFRMQKYEKGIDLLKKALEVGTDDFSLLSAIYCQLGNAHTMLKDYEQALKFHTYDILVERLLGNKEGEAKSCANLGNIFKMKGAYNDALTFTFKQLDFAEELGDRVLKSRAYYNIATIYVERGRCTKLEAAEEKNDAKNAEATSDFENAAKYFMLNLEMSEKSEDALTMGRCYGSLGNTYYCLGDYDQSIHFHKLRLELSQQYGDRASMRRAHANIANCHALKSNMPLAIQHYKLAYNLAIEIGNKTEEAQMAYSLANALYIGKEVQKAITYFQRHLKIARSLEDISGQLRSYYSLALSFNNLCERRKALYFLVLAKRSSLQVNDTSALTDIDNLLNEILEAGQEDVLVDDIELIIDESADPAPADIEHRELRLTYFQKRNIHDKPVNTPEDPLAEDRYEKEEFFDMLAKLQSKRMNDQRVDASVLSSNLDFRVRQVDTEPDNSSTDGSEVLIDLLLNAQGRRMDDQRAPFLPGLNPNGQIILRRLNTDPGNEELDEHLVEWLMRVQGERLDEQRSELPPIKPEGQEEVDKKKEEDVTAIVMRMQAGRLEDQRAHLPNIPTSKN | not soluble |
| MQEAVLQLIEVQLAQEEVTESPLGGDENAQLHASGYYALFVDTVPDDVKRLYTEAATSDFAALAQTAHRLKGVFAMLNLVPGKQLCETLEHLIREKDVPGIEKYISDIDSYVKSLL | soluble |
| MQEDDSVKPFQTVGAHRDLIHCVSFDPHGRRMATCASDMTMAIWDRKPDGNWRRSAHWKCHGGAVWRVIWAHPEFGQIVATCSYDRTIVIWEEQIVRSEKDLKQKESQWIRRTIISDNRSDVTDICFSPRHLGLMMASCNVLGTVRIYEAPDIVDASRWNLIHELQAFHTRCGCVTWSLSRMHRPLIAVGSDEKKAENKKRVVIYENIDGLRKWQRINSLVFDLPCPITDLKFSPISMVDSHQLAVASGDVHVYNIKVARSAILEEDGVENPIQLADYNLIKVALLGDHRKAWRLRYNLMGSVISSTSLDGTLRSWKSLFVNQWVKLSEMNVDDYVPSPEEVRAFISSKTTERLPSQLEKTYF | not soluble |
| MQEKTTESRILDATGRPFKVREAKELQTDDVRLAGLHRTFSNHPSSGLTPASAASILLSAEQGDLIAQCELAEDIEEKDGHLFAELDKRKRALIGVDYYLEPPSNPTPQEKADTEYLQQMLEEGGWIKSLIKSIADAILKGFSMHELAWSRELGEWFVEVPEYRDPSWFMTHPERRNELRLRDSTHEGAELWPFGWIKHIHPAKSGYVSRSGLVRQLIWPFIFKNYSVRDLAEFLEIYGLPLRIGQYPAGASDGEKRALLNAVMSIGHNAGGIMPKGMVMDFHSAATGQADPFELMMTWAEKTMSKVILGGTLTTQADGKSSTNALGNVHNEVRQELRDADLALVAETLTRDLIAPLYALNCKSYRSHRRHPRLVFDTTEAEDLRALAYPLRAFVSMGMQIPQNWLHEKTRIPKPANGEAVLVIQQDDPNATAASQTALAALSAKEGAAKQPDASLNEPSQTALDKALDALTQGQMSEAYMGMVEPLLAQLQSEPEQLRAQLEQNYPNMDTEQLTETLARLMFVAELWGMANA | not soluble |
| MQEQAQQFIFKVTDKAVEEIKKVAQENNIENPILRIRVVPGGCSGFQYAMGFDDTVEEGDHVFEYDGVKVVIDPFSMPYVNGAELDYVVDFMGGGFTIRNPNATGSCGCGSSFSCGLEHHHHHH | soluble |
| MQGAQTSEDNLGSQSQPGPCGYIYFYPLATYPLREVATLGTGYAGHRCLTVPLLCGITVEPGFSINVKALHRRPDPNCGLLRATSYHRDIYVFHNAHMVPPIFEGPGLEALCGETREVFGYDAYSALPRESSKPGDFFPEGLDPSAYLGAVAITEAFKERLYSGNLVAIPSLKQEVAVGQSASVRVPLYDKEVFPEGVPQLRQFYNSDLSRCMHEALYTGLAQALRVRRVGKLVELLEKQSLQDQAKVAKVAPLKEFPASTISHPDSGALMIVDSAACELAVSYAPAMLEASHETPASLNYDSWPLFADCEGPEARVAALHRYNASLAPHVSTQIFATNSVLYVSGVSKSTGQGKESLFNSFYMTHGLGTLQEGTWDPCRRPCFSGWGGPDVTGTNGPGNYAVEHLVYAASFSPNLLARYAYYLQFCQGQKSSLTPVPETGSYVAGAAASPMCSLCEGRAPAVCLNTLFFRLRDRFPPVMSTQRRDPYVISGASGSYNETDFLGNFLNFIDKEDDGQRPDDEPRYTYWQLNQNLLERLSRLGIDAEGKLEKEPHGPRDFVKMFKDVDAAVDAEVVQFMNSMAKNNITYKDLVKSCYHVMQYSCNPFAQPACPIFTQLFYRSLLTILQDISLPICMCYENDNPGLGQSPPEWLKGHYQTLCTNFRSLAIDKGVLTAKEAKVVHGEPTCDLPDLDAALQGRVYGRRLPVRMSKVLMLCPRNIKIKNRVVFTGENAALQNSFIKSTTRRENYIINGPYMKFLNTYHKTLFPDTKLSSLYLWHNFSRRRSVPVPSGASAEEYSDLALFVDGGSRAHEESNVIDVVPGNLVTYAKQRLNNAILKACGQTQFYISLIQGLVPRTQSVPARDYPHVLGTRAVESAAAYAEATSSLTATTVVCAATDCLSQVCKARPVVTLPVTINKYTGVNGNNQIFQAGNLGYFMGRGVDRNLLQAPGAGLRKQAGGSSMRKKFVFATPTLGLTVKRRTQAATTYEIENIRAGLEAIISQKQEEDCVFDVVCNLVDAMGEACASLTRDDAEYLLGRFSVLADSVLETLATIASSGIEWTAEAARDFLEGVWGGPGAAQDNFISVAEPVSTASQASAGLLLGGGGQGSGGRRKRRLATVLPGLEV | soluble |
| MQGEALKDFLFDKADDMKAVDIVTLDVKEKSSVTDYMIVCTGTSKRHVASIAEHVANEAKLSGLQPLGMNGENEGEWVVLDMGSVMLHVMQEAPRELYQLEKLWGLEHHHHHH | not soluble |
| MQIVTDKNKVALYYKDIAVTYKEFILNTKKIKQFTKIKEFTNNMIYMENRPELLYSFFAIWDSRATCVCIDASSTAVELTYYIDNSDVVKIFTTKMQVEKVKGALSILSKQIEIIVVDEINLSEIKIDENSSENLVINSPEKEDTALILYTSGTTGKPKGVMLTFDLEHHHHHH | not soluble |
| MQKAKNDYGTVVSVLKEDFHGFATGSIGAPDLNTVLTYAFPGECEYPWINFKPGYTQQQGWGGANVWQAGGTVCLNADGENFSHLNTPMLNVSGYQNIAIVRFDGVSDSLFSCLIREIRTLPSFASMPVRRKEWPIRL | not soluble |
